Three molecules from article PMC4075942 (Nature structural & molecular biology, 2014) can be followed below.

B1: Cas2 from Escherichia coli K12 (MG1655), untagged, purified (enzyme, E. coli K12 (MG1655))
chain: MSMLVVVTENVPPRLRGRLAIWLLEVRAGVYVGDVSAKIREMIWEQIAGLAEEGNVVMAWATNTETGFEFQTFGLNRRTPVDLDGLRLVSFLPV
B2: Cas1 from Escherichia coli K12 (MG1655), untagged, purified (enzyme, E. coli K12 (MG1655))
chain: MTWLPLNPIPLKDRVSMIFLQYGQIDVIDGAFVLIDKTGIRTHIPVGSVACIMLEPGTRVSHAAVRLAAQVGTLLVWVGEAGVRVYASGQPGGARSDKLLYQAKLALDEDLRLKVVRKMFELRFGEPAPARRSVEQLRGIEGSRVRATYALLAKQYGVTWNGRRYDPKDWEKGDTINQCISAATSCLYGVTEAAILAAGYAPAIGFVHTGKPLSFVYDIADIIKFDTVVPKAFEIARRNPGEPDREVRLACRDIFRSSKTLAKLIPLIEDVLAAGEIQPPAPPEDAQPVAIPLPVSLGDAGHRSS

Where “and” joins values, the source holds several entries; their conditions need not be identical. Equal entries are not always repeated.

In data set [1] the target is B2. As to the kind of experiment: ITC. On the technique in general: ITC needs no label: the signal is the heat of the interaction.
The data set “crystal structure” concerns the molecule itself. As to the kind of experiment: crystal structure.
Data set [2] has as its target B1. The data set is described as follows: AUC.
The target in data set [3] is B1. As to the kind of experiment: ITC.
The data set “SEC” deals with the molecule itself. As to the kind of experiment: SEC. (In general: SEC sorts molecules by how far they enter the pores of the column.)

Usually Kd stands for the concentration at which binding is half-saturated. The term stoichiometry N denotes the number of molecules, sites or subunits per partner or assembly. The molecule B1 gave a Kd in data set [1] of roughly 290 nM. The “stoichiometry N” value in the data set “crystal structure” is 2.
Consider B2, for which the “stoichiometry N” value in data set [2] is 1 Cas1 dimer per Cas2 dimer; in data set [3] it was ~1.5 Cas1 to Cas2; in the data set “crystal structure”, 2. Also, the “KD of a single run” value in data set [3] is 308 nM and 212 nM and 351 nM.

B3: Cas1 R252E, purified (enzyme, E. coli K12 (MG1655))
chain: MTWLPLNPIPLKDRVSMIFLQYGQIDVIDGAFVLIDKTGIRTHIPVGSVACIMLEPGTRVSHAAVRLAAQVGTLLVWVGEAGVRVYASGQPGGARSDKLLYQAKLALDEDLRLKVVRKMFELRFGEPAPARRSVEQLRGIEGSRVRATYALLAKQYGVTWNGRRYDPKDWEKGDTINQCISAATSCLYGVTEAAILAAGYAPAIGFVHTGKPLSFVYDIADIIKFDTVVPKAFEIARRNPGEPDREVRLACEDIFRSSKTLAKLIPLIEDVLAAGEIQPPAPPEDAQPVAIPLPVSLGDAGHRSS
In the case of B3, the “stoichiometry N” value in “SEC” amounted to 2.
